Laboratory results reported in patent US20060166191A1.

Molecular target: wild-type Gag expressed from the full-length proviral construct pNL4-3 (HIV-1) (UniProt P12493)
Test: cell-based or functional assay

For “AP3D-5′, AP3 δ subunit residues 1-742 (from UniProt O14617 1-742)”, the cells with particle budding among 100 consecutive 293T cells (thin-section electron microscopy), NL4-3 with AP3D-5′ was 0 cells of 100.
